Assay results: the supplement of paper PMC9112550, “Optimization of the antimicrobial peptide Bac7 by deep mutational scanning” (BMC Biology, 2022)

Tested on: Escherichia coli TOP10
Experiment: shrunken log2 fold change of peptide-encoding DNA abundance (4.5 h post-induction vs induction); higher = less antimicrobial activity (less host growth inhibition)
Details: time post-induction: 4.5 h; library: site-saturation at positions 5, 18, 19, 20
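Also: peptides expressed intracellularly from a pBAD plasmid library in pooled LB shake-flask culture, induced with 0.3% L-arabinose, DNA abundance read by NGS, three biological replicates, DESeq2 with apeglm shrinkage.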

| Sequence | shrunken log2 fold change |
| --- | --- |
| RRIRSRPPRLPRPRPRPQNDPRP | -0.13 |
| RRIRSRPPRLPRPRPRPQNIPRP | -0.657 |
| RRIRSRPPRLPRPRPRPQNVPRP | -0.209 |
| RRIRSRPPRLPRPRPRPQPHPRP | 0.17 |
| RRIRSRPPRLPRPRPRPQQPPRP | -0.273 |
| RRIRSRPPRLPRPRPRPQSHPRP | -0.216 |
| RRIRSRPPRLPRPRPRPQSNPRP | -0.613 |
| RRIRSRPPRLPRPRPRPQTLPRP | -0.119 |
| RRIRSRPPRLPRPRPRPQVWPRP | 0.675 |
| RRIRSRPPRLPRPRPRPQWSPRP | -0.176 |
| RRIRSRPPRLPRPRPRPRDDPRP | 0.0905 |
| RRIRSRPPRLPRPRPRPRDPPRP | 0.623 |
| RRIRSRPPRLPRPRPRPRDWPRP | 0.4 |
| RRIRSRPPRLPRPRPRPRESPRP | 0.092 |
| RRIRSRPPRLPRPRPRPRIWPRP | 0.183 |
| RRIRSRPPRLPRPRPRPRIYPRP | -0.517 |
| RRIRSRPPRLPRPRPRPRKNPRP | -0.0439 |
| RRIRSRPPRLPRPRPRPRKYPRP | -0.312 |
| RRIRSRPPRLPRPRPRPRNKPRP | -0.0701 |
| RRIRSRPPRLPRPRPRPRPAPRP | 0.467 |
| RRIRSRPPRLPRPRPRPRPPPRP | 1.13 |
| RRIRSRPPRLPRPRPRPRQVPRP | 0.109 |
| RRIRSRPPRLPRPRPRPRRAPRP | 0.41 |
| RRIRSRPPRLPRPRPRPRSGPRP | 0.237 |
| RRIRSRPPRLPRPRPRPRTLPRP | 0.128 |

| Sequence | shrunken log2 fold change |
| --- | --- |
| RRIRSRPPRLPRPRPRPRVCPRP | 0.366 |
| RRIRSRPPRLPRPRPRPRVNPRP | -0.189 |
| RRIRSRPPRLPRPRPRPRVYPRP | -0.348 |
| RRIRSRPPRLPRPRPRPRWPPRP | 0.553 |
| RRIRSRPPRLPRPRPRPRWRPRP | 0.375 |
| RRIRSRPPRLPRPRPRPRYPPRP | -0.036 |
| RRIRSRPPRLPRPRPRPRYYPRP | -0.554 |
| RRIRSRPPRLPRPRPRPSAAPRP | 0.614 |
| RRIRSRPPRLPRPRPRPSALPRP | -0.0202 |
| RRIRSRPPRLPRPRPRPSCEPRP | -0.0887 |
| RRIRSRPPRLPRPRPRPSCVPRP | -0.152 |
| RRIRSRPPRLPRPRPRPSDWPRP | 0.0164 |
| RRIRSRPPRLPRPRPRPSERPRP | 0.245 |
| RRIRSRPPRLPRPRPRPSFDPRP | -0.264 |
| RRIRSRPPRLPRPRPRPSFIPRP | -0.661 |
| RRIRSRPPRLPRPRPRPSFWPRP | 0.079 |
| RRIRSRPPRLPRPRPRPSFYPRP | -0.684 |
| RRIRSRPPRLPRPRPRPSGSPRP | -0.151 |
| RRIRSRPPRLPRPRPRPSHNPRP | -0.784 |
| RRIRSRPPRLPRPRPRPSKCPRP | -0.0382 |
| RRIRSRPPRLPRPRPRPSKFPRP | -0.779 |
| RRIRSRPPRLPRPRPRPSKGPRP | -0.142 |
| RRIRSRPPRLPRPRPRPSNTPRP | -0.748 |
| RRIRSRPPRLPRPRPRPSPWPRP | -0.0643 |
| RRIRSRPPRLPRPRPRPSQHPRP | -0.24 |

| Sequence | shrunken log2 fold change |
| --- | --- |
| RRIRSRPPRLPRPRPRPSRDPRP | -0.0156 |
| RRIRSRPPRLPRPRPRPSRKPRP | -0.0434 |
| RRIRSRPPRLPRPRPRPSVKPRP | -0.068 |
| RRIRSRPPRLPRPRPRPSVLPRP | -0.222 |
| RRIRSRPPRLPRPRPRPSWQPRP | -0.227 |
| RRIRSRPPRLPRPRPRPSYGPRP | -0.0636 |
| RRIRSRPPRLPRPRPRPSYMPRP | -1.1 |
| RRIRSRPPRLPRPRPRPTADPRP | 0.275 |
| RRIRSRPPRLPRPRPRPTAIPRP | -0.0172 |
| RRIRSRPPRLPRPRPRPTCKPRP | 0.107 |
| RRIRSRPPRLPRPRPRPTCQPRP | 0.0682 |
| RRIRSRPPRLPRPRPRPTDHPRP | -0.339 |
| RRIRSRPPRLPRPRPRPTDQPRP | 0.16 |
| RRIRSRPPRLPRPRPRPTEDPRP | 0.14 |
| RRIRSRPPRLPRPRPRPTEFPRP | 0.153 |
| RRIRSRPPRLPRPRPRPTEQPRP | -0.0196 |
| RRIRSRPPRLPRPRPRPTERPRP | 0.142 |
| RRIRSRPPRLPRPRPRPTESPRP | 0.0325 |
| RRIRSRPPRLPRPRPRPTGAPRP | 0.633 |
| RRIRSRPPRLPRPRPRPTGKPRP | 0.274 |
| RRIRSRPPRLPRPRPRPTGRPRP | 0.15 |
| RRIRSRPPRLPRPRPRPTGYPRP | 0.0189 |
| RRIRSRPPRLPRPRPRPTHCPRP | 0.36 |
| RRIRSRPPRLPRPRPRPTIGPRP | 0.0365 |
| RRIRSRPPRLPRPRPRPTIKPRP | -0.29 |
